Source: the Human Domainome abundance scans (Beltran et al. 2025)
± gives the uncertainty stated by the source.

B1: Peripheral plasma membrane protein CASK, residues 488 to 569; numbered along this chain, O14936 (parent)
chain: VRLVQFQKNTDEPMGITLKMNELNHCIVARIMHGGMIHRQGTLHVGDEIREINGISVANQTVEQLQKMLREMRGSITFKIVP

Variants of: B1
Test: abundance fitness (aPCA) (normalised: wild type 0, dead -1); higher = more abundant; growth selection in yeast, the domain comes from the species named
Conditions: Homo sapiens

Going from VRLVQFQKNTDEPMGITLKMNELNHCIVARIMHGGMIHRQATLHVGDEIREINGISVANQTVEQLQKMLREMRGSITFKIVP [G41A] to VRLVQFQKNTDEPMGITLKMNELNHCIVARIMHGGMIHRQGTLHVGDEIREINGISVANQTYEQLQKMLREMRGSITFKIVP [V62Y], the abundance fitness falls from -0.083 ± 0.024 to -0.172 ± 0.041.

Compared with VRLVQFQKNTDEPMGITLKMNELNHCIVARIMHGGMIHRQGTLHVGDEIREINGISVANQTVEQLQKMLREMRGSITFAIVP [K79A], VRLVQFQKNTDEPMGITLKMNELNHCIVARIMHGYMIHRQGTLHVGDEIREINGISVANQTVEQLQKMLREMRGSITFKIVP [G35Y] is lower in abundance fitness: 0.071 ± 0.044 for the first, -0.134 ± 0.054 for the second.

Going from VRLVQFQKNTDEPMGITLKMNELNHCIVARIMHGGMIHRIGTLHVGDEIREINGISVANQTVEQLQKMLREMRGSITFKIVP [Q40I] to VRLVQFQKNTDEPMGQTLKMNELNHCIVARIMHGGMIHRQGTLHVGDEIREINGISVANQTVEQLQKMLREMRGSITFKIVP [I16Q], the abundance fitness falls from -0.05 ± 0.038 to -0.849 ± 0.12.

Compared with VRLVQFQSNTDEPMGITLKMNELNHCIVARIMHGGMIHRQGTLHVGDEIREINGISVANQTVEQLQKMLREMRGSITFKIVP [K8S], VRLVQFQKNTDEPMGITLKMNELNHCIVARIMHGGMIHRQGTLHVGDEIREINGISVANQTVEQLQKMLREMRGSITFKCVP [I80C] is higher in abundance fitness: -0.169 ± 0.029 for the first, -0.074 ± 0.052 for the second.

Compared with VRLVQFQKNTDEPMGITLKMNELNHCIVARIMHGGMIHRQGTLHVGDEIREINGISVANQTVEQLQKMLREMRGSITFKPVP [I80P], VRLVQFWKNTDEPMGITLKMNELNHCIVARIMHGGMIHRQGTLHVGDEIREINGISVANQTVEQLQKMLREMRGSITFKIVP [Q7W] is higher in abundance fitness: -0.921 ± 0.08 for the first, -0.037 ± 0.025 for the second.

Compared with VRLVQFLKNTDEPMGITLKMNELNHCIVARIMHGGMIHRQGTLHVGDEIREINGISVANQTVEQLQKMLREMRGSITFKIVP [Q7L], VRLVQFQKNTDEPMGITLKMNELNHCIVARIMHGGMIHRQGTLHVGDEIREILGISVANQTVEQLQKMLREMRGSITFKIVP [N53L] is lower in abundance fitness: -0.027 ± 0.025 for the first, -0.903 ± 0.12 for the second.

Compared with VRLVQFQKNTDEPMGITLKMNELNHCIVARIMHFGMIHRQGTLHVGDEIREINGISVANQTVEQLQKMLREMRGSITFKIVP [G34F], VRLVQFQKNTDEPMGITLKMNELNHCIVARIMHAGMIHRQGTLHVGDEIREINGISVANQTVEQLQKMLREMRGSITFKIVP [G34A] is higher in abundance fitness: -0.385 ± 0.096 for the first, -0.247 ± 0.041 for the second.

First: VRLVQFQKNTDEPMGITLKMNELNHCIVARIMHGGMIHRQGTLHVGDEIREINGISVANQTVEQLQKMCREMRGSITFKIVP [L69C]
Second: VRLVQFQKNTDEPMGITLKMNELNHCIVARIMHGGMIHRQGTLHVGDEIREINGISVANQTVEQLQKMQREMRGSITFKIVP [L69Q]
The abundance fitness of the first is higher: -0.093 ± 0.035 for the first, -0.594 ± 0.045 for the second.

VRLVQFQKNTDEPMGITLQMNELNHCIVARIMHGGMIHRQGTLHVGDEIREINGISVANQTVEQLQKMLREMRGSITFKIVP [K19Q] and VRLVQFQKNTDEPMGITLAMNELNHCIVARIMHGGMIHRQGTLHVGDEIREINGISVANQTVEQLQKMLREMRGSITFKIVP [K19A] are within error of each other in abundance fitness: -0.016 ± 0.035 for the first, 0.022 ± 0.026 for the second.

Going from VRLVQFQKNTDEPMGITLKMNELNHCIVARIMHGGMIHRQGVLHVGDEIREINGISVANQTVEQLQKMLREMRGSITFKIVP [T42V] to VRLVQFQKNTDEPMGITLKMNELNHCIVARIMHGGMIHRQGTLHVGDEIREINGISVANQTVELLQKMLREMRGSITFKIVP [Q64L], the abundance fitness falls from -0.019 ± 0.023 to -0.08 ± 0.023.

Going from VRLVQFQKNTDEPMGITLKMNRLNHCIVARIMHGGMIHRQGTLHVGDEIREINGISVANQTVEQLQKMLREMRGSITFKIVP [E22R] to VRLVQFQKNTDEPMGITLKMNELNHCIVARIMHGGMIHRQGTLHVGDEIREINGISVANQTVEQLQKMLREMRGSETFKIVP [I76E], the abundance fitness falls from 0.001 ± 0.025 to -1.04 ± 0.098.

Going from VRLVQFQKNTDEPMGITLKMNELNHCIVARIMHGGMIHRQGTLHVGDEIREINGISVANQTVEQLQKMLREMRGSSTFKIVP [I76S] to VRLVQFQKNTDEPMGITLKMNELNHCIVARIMHGGMIHRQGTLHVGDEIREINGISVANQTVEQLQKMLREMRGSWTFKIVP [I76W], the abundance fitness rises from -0.448 ± 0.037 to -0.236 ± 0.032.

VRLYQFQKNTDEPMGITLKMNELNHCIVARIMHGGMIHRQGTLHVGDEIREINGISVANQTVEQLQKMLREMRGSITFKIVP [V4Y] and VRLIQFQKNTDEPMGITLKMNELNHCIVARIMHGGMIHRQGTLHVGDEIREINGISVANQTVEQLQKMLREMRGSITFKIVP [V4I] are within error of each other in abundance fitness: -0.19 ± 0.055 for the first, -0.091 ± 0.049 for the second.

Compared with VRLVQFQKNTDEPMGILLKMNELNHCIVARIMHGGMIHRQGTLHVGDEIREINGISVANQTVEQLQKMLREMRGSITFKIVP [T17L], VRLVQFQKNTDEPMGITLKMNELNHCIVARIMHGGMIHRQGTLHVGDETREINGISVANQTVEQLQKMLREMRGSITFKIVP [I49T] is lower in abundance fitness: 0.019 ± 0.023 for the first, -0.576 ± 0.095 for the second.

Compared with VRLVQFQKNTDEPMGITLKMNELNHCIVARIMHGGMIHRQGTLHVGDEAREINGISVANQTVEQLQKMLREMRGSITFKIVP [I49A], VRLVQFQKNTDEPMGITLKMNELNHCIVARILHGGMIHRQGTLHVGDEIREINGISVANQTVEQLQKMLREMRGSITFKIVP [M32L] is higher in abundance fitness: -0.856 ± 0.089 for the first, -0.083 ± 0.038 for the second.

Compared with VRLVQFQKNTDEPWGITLKMNELNHCIVARIMHGGMIHRQGTLHVGDEIREINGISVANQTVEQLQKMLREMRGSITFKIVP [M14W], VRLVQFQKNTDEPTGITLKMNELNHCIVARIMHGGMIHRQGTLHVGDEIREINGISVANQTVEQLQKMLREMRGSITFKIVP [M14T] is lower in abundance fitness: -0.042 ± 0.05 for the first, -0.165 ± 0.042 for the second.

Going from VRLVQFQKNTDEPMGITLKMNELNHCIAARIMHGGMIHRQGTLHVGDEIREINGISVANQTVEQLQKMLREMRGSITFKIVP [V28A] to VRLVQFQKNTDEPMGITLKMNELNHCIVARIMHGGMIHRQGTLHVGDEIREINGISVANQTVEQLQKSLREMRGSITFKIVP [M68S], the abundance fitness rises from -0.479 ± 0.032 to -0.004 ± 0.026.
